Assay [1] addresses T1, mNPR1-mFc (mouse).
T1 construct: also called mouse NPR1 extracellular domain expressed with a C-terminal mouse IgG2a
T1 chain: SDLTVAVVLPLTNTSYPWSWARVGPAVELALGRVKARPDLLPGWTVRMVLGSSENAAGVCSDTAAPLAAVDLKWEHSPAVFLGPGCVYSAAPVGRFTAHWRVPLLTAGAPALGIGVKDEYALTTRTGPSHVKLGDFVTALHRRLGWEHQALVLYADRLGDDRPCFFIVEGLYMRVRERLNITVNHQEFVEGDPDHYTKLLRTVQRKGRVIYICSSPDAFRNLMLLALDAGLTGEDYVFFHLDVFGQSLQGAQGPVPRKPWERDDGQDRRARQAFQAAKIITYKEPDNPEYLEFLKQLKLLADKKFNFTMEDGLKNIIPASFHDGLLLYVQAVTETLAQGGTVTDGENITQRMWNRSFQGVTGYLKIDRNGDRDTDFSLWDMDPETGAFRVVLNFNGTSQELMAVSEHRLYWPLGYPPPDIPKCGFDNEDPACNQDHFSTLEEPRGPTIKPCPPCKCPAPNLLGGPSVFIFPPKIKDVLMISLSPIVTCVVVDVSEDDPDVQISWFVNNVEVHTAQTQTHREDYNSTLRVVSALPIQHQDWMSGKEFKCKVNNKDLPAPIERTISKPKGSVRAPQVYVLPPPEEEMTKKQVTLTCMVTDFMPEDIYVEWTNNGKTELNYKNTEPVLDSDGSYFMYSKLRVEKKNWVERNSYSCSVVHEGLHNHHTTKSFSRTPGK
Kind of assay: SPR Biacore, mAb captured by anti-human Fc, 25C. Here is the method: (§1) Equilibrium dissociation constant (KD) for different NPR1 reagents binding to purified anti-NPR1 monoclonal antibodies (mAbs) were determined using a real-time surface plasmon resonance based Biacore 4000 biosensor. All binding studies were performed in 10 mM HEPES, 150 mM NaCl, 3 mM EDTA, and 0.05% v/v Surfactant Tween-20, pH 7.4 (HBS-ET) running buffer at 25° C. and 37° C. The Biacore CM5 sensor chip surface was first derivatized by amine coupling with either mouse anti-human Fc specific mAb (GE Healthcare, #BR100839) or goat anti-human Fcy specific polyclonal antibody (Jackson ImmunoResearch Laboratories, #BR-1008-39) to capture anti-NPR1 mAbs.
For orientation: Surface plasmon resonance follows binding to a sensor surface in real time, without labels.

The target of assay [2] is T2, human NPR1 on HEK293/hNPR1.myc.DDK cells (0 hANP) (human, UniProt P16066 33-1061).
T2 construct: Full-length receptor on engineered HEK293 cells, no ANP added; also called HEK293/hNPR1.myc.DKK
T2 sequence: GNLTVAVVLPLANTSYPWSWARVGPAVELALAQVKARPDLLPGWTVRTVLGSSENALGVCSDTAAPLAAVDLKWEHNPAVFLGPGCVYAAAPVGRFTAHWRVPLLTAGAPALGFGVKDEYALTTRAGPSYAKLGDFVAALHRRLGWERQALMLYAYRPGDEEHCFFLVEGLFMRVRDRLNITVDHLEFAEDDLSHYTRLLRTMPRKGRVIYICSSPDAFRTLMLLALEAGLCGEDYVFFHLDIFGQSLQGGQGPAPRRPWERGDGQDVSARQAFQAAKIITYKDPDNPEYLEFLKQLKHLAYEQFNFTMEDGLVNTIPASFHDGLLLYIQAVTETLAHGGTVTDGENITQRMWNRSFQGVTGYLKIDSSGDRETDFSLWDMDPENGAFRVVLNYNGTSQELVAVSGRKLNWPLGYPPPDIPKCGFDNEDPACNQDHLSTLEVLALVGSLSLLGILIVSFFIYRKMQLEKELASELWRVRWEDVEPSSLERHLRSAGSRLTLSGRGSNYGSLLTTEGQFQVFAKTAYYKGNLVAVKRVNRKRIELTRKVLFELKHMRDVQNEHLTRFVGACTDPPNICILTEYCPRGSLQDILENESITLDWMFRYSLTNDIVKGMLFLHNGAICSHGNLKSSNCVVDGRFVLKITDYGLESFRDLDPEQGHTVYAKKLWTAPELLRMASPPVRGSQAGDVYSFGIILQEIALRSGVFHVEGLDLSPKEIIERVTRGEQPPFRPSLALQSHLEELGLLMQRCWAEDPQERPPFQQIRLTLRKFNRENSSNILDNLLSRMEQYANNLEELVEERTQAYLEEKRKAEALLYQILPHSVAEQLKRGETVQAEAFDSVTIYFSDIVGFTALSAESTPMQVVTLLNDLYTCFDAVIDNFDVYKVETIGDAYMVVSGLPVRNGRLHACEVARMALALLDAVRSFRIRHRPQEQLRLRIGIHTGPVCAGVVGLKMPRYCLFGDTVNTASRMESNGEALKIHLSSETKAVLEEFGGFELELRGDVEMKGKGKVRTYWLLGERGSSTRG
Kind of assay: ECL cell binding (MSD), 0 hANP. Here is the method: (§2) All cells were washed once with 1×PBS with Ca²⁺/Mg²⁺ and counted with a Cellometer™ Auto T4 cell counter (Nexcelom Bioscience). Approximately 2.0×10⁴ HEK293/hNPR1.myc.DDK or HEK293 cells were seeded separately onto 96-well carbon electrode plates (MULTI-ARRAY high bind plate, Meso Scale Discovery (MSD, Rockville, MD)) and incubated for 1 hour (h) at 37° C. Nonspecific binding sites were blocked by 2% BSA (w/v) in 1×PBS with Ca²⁺/Mg²⁺for 1 h at room temperature (RT). HEK293/hNPR1.myc. […] The plate-bound antibodies were detected with SULFO-TAG™-conjugated goat polyclonal anti-human IgG antibody specific for heavy and light chains (Jackson Immunoresearch, West Grove, PA) for 1 h, RT.
(§3) After washes, plates were developed with Read Buffer (MSD, Rockville, MD) according to manufacturer's recommended procedure and luminescent signals were recorded with a SECTOR Imager 600 (MSD, Rockville, MD). Luminescence intensity, measured in relative light units (RLU), was recorded to indicate the binding intensity of each antibody at the range of concentrations.
(§4) In addition, direct binding signals (RLU) were analyzed as a function of the antibody concentration and data were fitted with a sigmoidal (four-parameter logistic) dose-response model using R statistical package (open source).

The target of assay [3] is T3, human NPR1 on HEK293/hNPR1.myc.DDK cells with 10 nM hANP (NPR1-ANP complex) (human, UniProt P01160 124-151).
T3 construct: also called NPR1-ANP Complex on the Cell Surface
T3 sequence: T2 sequence
T3 sequence (peptide): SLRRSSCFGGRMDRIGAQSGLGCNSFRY
Kind of assay: ECL cell binding (MSD), +10 nM hANP. On the procedure: as §2, §3, §4

A further assay concerns the target T4, mfNPR1-mFc:hBNP complex (monkey; human, UniProt P16860 103-134).
T4 construct: Receptor-Fc pre-complexed with 10-fold hBNP
Kind of assay: SPR Biacore, mAb captured by anti-human Fc, 37C. On the procedure:
as §1

Assay [4] deals with T1, mNPR1-mFc. Kind of assay: SPR Biacore, mAb captured by anti-human Fc, 37C. Here is the method:
as §1

The target of assay [5] is T2, human NPR1 on HEK293/hNPR1.myc.DDK …. Kind of assay: cell-based or functional assay.

B1: mAb25491 (antibody, human IgG4, V domains shown)
VH: QVQLVQSGAEVMKPGASVKVSCKASGYTFTGYYIHWVRQAPGQGLEWMGWITPNSGATNYAQKFQGRVTLTRDTSISTAYMELTRLKSDDTAVYYCARGGQLEFFYYYYGMDVWGQGTTVTVSS
VL: DIQMTQSPSSLSASAGDRVTITCRASQSIDSYLNWYQQKPGKAPKLLISATSGFQSGVPSRFSGSGSGTDFTLTISSLQPEDFGTYYCQQSYTTPITFGQGTRLEIK
By EC50 is commonly meant the concentration needed to bring the measured effect to its halfway point. A higher EC50 goes with weaker potency. Usually Kd stands for a measure of binding affinity in units of concentration. A low value points to tighter binding. As usually defined, the koff is the rate constant with which the complex falls apart. As a reminder, the kon is the second-order rate constant of association. High values mean faster complex formation, low ones slower complex formation. As usually defined, the t½ is the time in which the quantity being followed falls by half. Lower therefore signals fast loss. Regarding B1, the “100 nM Ag Bound (RU)” value in the assay with mNPR1-mFc [1] was 1 RU. For the same molecule, in assay [2], the response was half-maximal at 1.6 nM (EC50) and the “Ratio at 3.7 nM Ab concentration of Cell Binding Signal (RLU) to HEK293/hNPR1.myc.DKK relative to parental HEK293” value was determined as 58 ratio. In assay [3], the response was half-maximal at 1 nM (EC50) and the “Ratio at 3.7 nM Ab concentration of Cell Binding Signal (RLU) to HEK293/hNPR1.myc.DKK relative to parental HEK293” value came out at 78 ratio. Further, in the assay with mfNPR1-mFc:hBNP complex, the “100 nM Ag Bound (RU)” value came to 146 RU, the Kd was determined as 1.6 nM, the koff worked out at 0.00011 s⁻¹ and the kon came to 68900 M⁻¹ s⁻¹. The molecule also had a t½ with mfNPR1-mFc:hBNP complex of 1.75 h. For the same molecule, in the assay with mNPR1-mFc [4], the “100 nM Ag Bound (RU)” value is 1 RU and the binding result is on record as “no binding (tested: 100 nM)”. Also, in assay [5], the “% Activation (vs ANP max), Expt 1” value worked out at 74.6%; the “% Activation (vs. ANP max), Expt II” value came to 104%; the “EC50 (nM), calcium flux, Expt 1” value turned out to be 102 nM; the “EC50 (nM), calcium flux, Expt II” value came to 43.4 nM.

B2: mAb25502 (antibody, human IgG4, V domains shown)
VH: QLQLQESGPGLVKPSETLSLTCTVSGGSISSSSYYWGWIRQPPGKGLEWIGSIYYSGSPYYIPSLKSRVTISVDTSKNQFSLKLSSVTAADTAMYYCARQGRGIARAGPFDYWGQGTLVTVSS
VL: DIQMTQSPSSLSASVGDRVTITCRASQGISNYLAWYQEKPGKVPKLLIYAASTLQSGVPSRFSGSGSGTDFTLTITSLQSEDVATYYCQKYNSAPPWTFGQGTKVEIK
Take B2: in the assay with mNPR1-mFc [1], the “100 nM Ag Bound (RU)” value came to 1 RU. The “Ratio at 3.7 nM Ab concentration of Cell Binding Signal (RLU) to HEK293/hNPR1.myc.DKK relative to parental HEK293” value in assay [3] was determined as 14 ratio. Besides, in the assay with mfNPR1-mFc:hBNP complex, the “100 nM Ag Bound (RU)” value was determined as 139 RU, the Kd was 5.65 nM, the koff was determined as 0.000481 s⁻¹ and the kon turned out to be 85200 M⁻¹ s⁻¹. Further, the t½ with mfNPR1-mFc:hBNP complex was determined as 0.4 h. In the assay with mNPR1-mFc [4], the “100 nM Ag Bound (RU)” value came to 1 RU and the binding result is listed as “no binding (tested: 100 nM)”.

B3: mAb22033 (antibody, human IgG4, V domains shown)
VH: QVQLVQSGAEVKKPGASVTVSCKASGYTFTDYYMHWVRQAPGQGLEWMGWIKPNSGGTNSAQRFQGRITMTWDTSISTAYMELSRLRSDDTAVYYCSRGGPVMNYYYYYGMDVWGQGTTVTVSS
VL: NIQMTQSPSSLSASVGDRVTITCRASQSIDSYLNWYQQKPGKAPKLLIYVASSLQSGVPSRFSGSGSGKDFTLTISSLQPEDFATYYCQQSYSIPTFGQGTRLEIK
For the molecule B3, in the assay with mNPR1-mFc [1], the “100 nM Ag Bound (RU)” value came to 0 RU and the binding result was “no binding (tested: 100 nM)”. For the same molecule, in assay [2], the EC50 was determined as 0.49 nM and the “Ratio at 3.7 nM Ab concentration of Cell Binding Signal (RLU) to HEK293/hNPR1.myc.DKK relative to parental HEK293” value amounted to 207 ratio. Moreover, in assay [3], a half-maximal response (EC50) required 0.82 nM and the “Ratio at 3.7 nM Ab concentration of Cell Binding Signal (RLU) to HEK293/hNPR1.myc.DKK relative to parental HEK293” value amounted to 236 ratio. In addition, in the assay with mfNPR1-mFc:hBNP complex, the “100 nM Ag Bound (RU)” value is 167 RU, the Kd amounted to 1.3 nM, the off-rate (koff) was 8.8e-05 s⁻¹ and the kon came out at 67500 M⁻¹ s⁻¹. In the assay with mfNPR1-mFc:hBNP complex, this molecule had a t½ of 2.19 h. Moreover, in the assay with mNPR1-mFc [4], the “100 nM Ag Bound (RU)” value was determined as 1 RU. In assay [5], the “% Activation (vs ANP max), Expt 1” value was 130%; the “% Activation (vs. ANP max), Expt II” value amounted to 129%; the “EC50 (nM), calcium flux, Expt 1” value worked out at 83.7 nM; the “EC50 (nM), calcium flux, Expt II” value was 41.6 nM.

B4: mAb22035 (antibody, human IgG4, V domains shown)
VH: EVQLVESGGGLVQPGRSLRLSCAASGFTFDDYAMHWVRQAPGKGLEWVSGISWNSGTIGYADSVKGRFTMSRDNAKNSLYLQMNSLRPEDTALYYCAKDMGVSLALWGAFDIWGQGTMVTVSS
VL: DIQMTQSPSSLSASVGDKVTITCRASQNIRTYLNWYQQKPGKAPKVLISTASSLQSGVPSRFSGSGSGTDFTLTISSLQPEDFAVFYCQQSFGIPRTFGQGTKVEIK
Regarding B4, in the assay with mNPR1-mFc [1], the “100 nM Ag Bound (RU)” value is -1 RU. In addition, in assay [2], the EC50 came out at 2.3 nM and the “Ratio at 3.7 nM Ab concentration of Cell Binding Signal (RLU) to HEK293/hNPR1.myc.DKK relative to parental HEK293” value turned out to be 151 ratio. Also, in assay [3], the EC50 was found to be 0.89 nM and the “Ratio at 3.7 nM Ab concentration of Cell Binding Signal (RLU) to HEK293/hNPR1.myc.DKK relative to parental HEK293” value was 220 ratio. Further, in the assay with mfNPR1-mFc:hBNP complex, the “100 nM Ag Bound (RU)” value was 286 RU, the Kd came out at 0.368 nM, the koff turned out to be 9.48e-05 s⁻¹ and the kon was 258000 M⁻¹ s⁻¹. In the assay with mfNPR1-mFc:hBNP complex, this molecule registered a t½ of 2.03 h. Also, the “100 nM Ag Bound (RU)” value with mNPR1-mFc [4] was determined as 0 RU. In assay [5], the “% Activation (vs ANP max), Expt 1” value turned out to be 73.1%; the “% Activation (vs. ANP max), Expt II” value was 56.8%; the “EC50 (nM), calcium flux, Expt 1” value amounted to 384 nM; the “EC50 (nM), calcium flux, Expt II” value was greater than 200 nM.

(Values after patent publication US20240309103A1 (Regeneron, published 2024).)
